This note sets out measurements from article PMC11662656, “Intrinsically disordered RNA-binding motifs cooperate to catalyze RNA folding and drive phase separation”.

For data set [1], the target named is Loc1p (Saccharomyces cerevisiae, UniProt P43586 1-204). The data set can be described thus: EMSA; nanomolar range; 100 ug/ml yeast tRNA; EMSA: 20 mM HEPES pH 7.8, 200 mM NaCl, 2 mM MgCl2, 2 mM DTT, 4% glycerol, 25 C, 5 nM RNA, 100 ug/ml tRNA (omitted in competition); NMR: 20 mM Na phosphate pH 7. Background: Mobility shift assays separate free from complexed probe on a gel.

The target of data set [2] is T1, MBP-Loc1p (Saccharomyces cerevisiae, UniProt P43586 1-204). Put plainly: competition; vs labeled TAR-57; 10-500x; EMSA: 20 mM HEPES pH 7.8, 200 mM NaCl, 2 mM MgCl2, 2 mM DTT, 4% glycerol, 25 C, 5 nM RNA, 100 ug/ml tRNA (omitted in competition); NMR: 20 mM Na phosphate pH 7.
The target in data set [3] is T1, MBP-Loc1p. Put plainly: competition; vs labeled ASH1 E3; 10-500x; EMSA: 20 mM HEPES pH 7.8, 200 mM NaCl, 2 mM MgCl2, 2 mM DTT, 4% glycerol, 25 C, 5 nM RNA, 100 ug/ml tRNA (omitted in competition); NMR: 20 mM Na phosphate pH 7.
Data set [4] addresses T2, MBP-Loc1p (Saccharomyces cerevisiae, UniProt P43586 1-204). Put plainly: competition; vs labeled TAR-57; 10-500x; EMSA: 20 mM HEPES pH 7.8, 200 mM NaCl, 2 mM MgCl2, 2 mM DTT, 4% glycerol, 25 C, 5 nM RNA, 100 ug/ml tRNA (omitted in competition); NMR: 20 mM Na phosphate pH 7.4, 50 mM NaCl, 278 K. To be noted: protein: recombinant; tags: MBP.
The target in data set [5] is T1, MBP-Loc1p. The data set can be described thus: EMSA; 100 nM DNA; affinity similar to ssRNA; EMSA: 20 mM HEPES pH 7.8, 200 mM NaCl, 2 mM MgCl2, 2 mM DTT, 4% glycerol, 25 C, 5 nM RNA, 100 ug/ml tRNA (omitted in competition); NMR: 20 mM Na phosphate pH 7.
The target in data set [6] is T2, MBP-Loc1p. The data set can be described thus: competition; vs labeled ASH1 E3; 10-500x; EMSA: 20 mM HEPES pH 7.8, 200 mM NaCl, 2 mM MgCl2, 2 mM DTT, 4% glycerol, 25 C, 5 nM RNA, 100 ug/ml tRNA (omitted in competition); NMR: 20 mM Na phosphate pH 7.4, 50 mM NaCl, 278 K. To be noted: protein: recombinant; tags: MBP; hairpin.
Data set [7] concerns the target Loc1p (Saccharomyces cerevisiae, UniProt P43586 1-204). The data set can be described thus: EMSA; nanomolar range; 100 ug/ml yeast tRNA; EMSA: 20 mM HEPES pH 7.8, 200 mM NaCl, 2 mM MgCl2, 2 mM DTT, 4% glycerol, 25 C, 5 nM RNA, 100 ug/ml tRNA (omitted in competition); NMR: 20 mM Na phosphate pH 7.4, 50 mM NaCl, 278 K. The following applies: protein: recombinant; hairpin.

In a further data set the target is T3, Loc1p (3-15) (Saccharomyces cerevisiae, UniProt P43586 3-15).
T3 chain: PKKPSKRQNLRRE
Put plainly: NMR (1H-15N HSQC titration); range over peptide signals; EMSA: 20 mM HEPES pH 7.8, 200 mM NaCl, 2 mM MgCl2, 2 mM DTT, 4% glycerol, 25 C, 5 nM RNA, 100 ug/ml tRNA (omitted in competition); NMR: 20 mM Na phosphate pH 7.4, 50 mM NaCl, 278 K. The following applies: protein: recombinant; tags: GST removed by thrombin (15N,13C sample); hairpin, 11 bp stem, GAAA loop.

The target of the next data set is Loc1p array peptide B6 (Saccharomyces cerevisiae, UniProt P43586 76-95). Put plainly: peptide array; EMSA: 20 mM HEPES pH 7.8, 200 mM NaCl, 2 mM MgCl2, 2 mM DTT, 4% glycerol, 25 C, 5 nM RNA, 100 ug/ml tRNA (omitted in competition); NMR: 20 mM Na phosphate pH 7.4, 50 mM NaCl, 278 K. To be noted: tags: array-immobilized; label: radioactive.
The target of a further data set is T4, Loc1p array peptide A11 (Saccharomyces cerevisiae, UniProt P43586 31-50).
T4 chain: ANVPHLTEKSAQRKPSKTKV
Described as above. To be noted: tags: array-immobilized; label: radioactive.

The target of the next data set is T5, Loc1p array peptide A9 (Saccharomyces cerevisiae, UniProt P43586 25-44).
T5 chain: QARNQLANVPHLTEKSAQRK
Described as above. To be noted: tags: array-immobilized; label: radioactive.

Another data set concerns the target T6, Loc1p array peptide B19 (Saccharomyces cerevisiae, UniProt P43586 115-134).
T6 chain: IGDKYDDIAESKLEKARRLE
Described as above. The following applies: tags: array-immobilized; label: radioactive.

The target of a further data set is T7, Loc1p array peptide A7 (Saccharomyces cerevisiae, UniProt P43586 19-38).
T7 chain: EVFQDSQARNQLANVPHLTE
The description is as above. The following applies: tags: array-immobilized; label: radioactive.

Another data set deals with T8, Loc1p array peptide A10 (Saccharomyces cerevisiae, UniProt P43586 28-47).
T8 chain: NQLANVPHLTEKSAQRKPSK
The description is as above. The following applies: tags: array-immobilized; label: radioactive.

The target of the next data set is Loc1p array peptide B5 (Saccharomyces cerevisiae, UniProt P43586 73-92). The description is as above. To be noted: tags: array-immobilized; label: radioactive.
For another data set, the target named is Loc1p array peptide B8 (Saccharomyces cerevisiae, UniProt P43586 82-101). The description is as above. To be noted: tags: array-immobilized; label: radioactive.
For another data set, the target named is Loc1p array peptide A14 (Saccharomyces cerevisiae, UniProt P43586 40-59). Described as above. The following applies: tags: array-immobilized; label: radioactive.
Another data set has as its target Loc1p array peptide A15 (Saccharomyces cerevisiae, UniProt P43586 43-62). The description is as above. The following applies: tags: array-immobilized; label: radioactive.
The target of the next data set is Loc1p array peptide C15 (Saccharomyces cerevisiae, UniProt P43586 163-182). The data set is described as above. The following applies: tags: array-immobilized; label: radioactive.
In the next data set the target is Loc1p array peptide B7 (Saccharomyces cerevisiae, UniProt P43586 79-98). The data set is described as above. To be noted: tags: array-immobilized; label: radioactive.

As to CGAAGAUGAAAAUGAUCACGAGAGAGAUCCCGAACAAUUUUCAGAAUUUG (ssRNA) [EAR1 LE], the binding result with Loc1p [1] and in the data set with MBP-Loc1p [2] was “binds” each time.

B1: poly-A60 (ssRNA)
RNA: AAAAAAAAAAAAAAAAAAAAAAAAAAAAAAAAAAAAAAAAAAAAAAAAAAAAAAAAAAAA
Regarding B1, the binding result with MBP-Loc1p [3], with Loc1p [1] and with MBP-Loc1p [4] was “binds” in each case.
Regarding AAAAAAAAAAAAAAAAAAAAA (ssDNA) [Cy3-A(21) ssDNA], in the data set with MBP-Loc1p [5], the binding result is given as “binds”.

B2: HIV TAR-57 (structured_RNA)
RNA: GGUCUCUCUGGUUAGACCAGAUCUGAGCCUGGGAGCUCUCUGGCUAACUAGGGAACC
In the case of B2, the binding result with MBP-Loc1p [6] and with Loc1p [7] was “binds” throughout.
Regarding UCUCUGGUUAGGAAACUAACUAGGGA (structured_RNA) [dsRNA tetraloop], the Kd (as a rule, the free concentration of one partner at which half of the binding sites on the other are occupied at equilibrium, for simple one-to-one binding) with Loc1p (3-15) was approximately 73.7 µM.

B3: ASH1 E3 (short) (structured_RNA)
RNA: AUGGAUAACUGAAUCUCUUUCAACUAAUAAGAGACAUUAUCACGAAACAAU
For the molecule B3, the binding result with Loc1p array peptide B6 was “binds”; with Loc1p array peptide A11, “binds”; in the data set with Loc1p array peptide A9, “binds”; in the data set with Loc1p array peptide B19 it was “no binding”; with Loc1p array peptide A7 it was “no binding”; in the data set with Loc1p array peptide A10, “binds”. Also, the binding result in the data set with Loc1p array peptide B5, in the data set with Loc1p array peptide B8, with Loc1p array peptide A14, in the data set with Loc1p array peptide A15, with Loc1p array peptide C15 and with Loc1p array peptide B7 was “binds” in each case.
